According to PMC8047137, “Smyd1 Orchestrates Early Heart Development Through Positive and Negative Gene Regulation” (Frontiers in Cell and Developmental Biology, 2021):

Target: V5-tagged ASH2L (absent small homeotic-2-like protein) (mouse, UniProt Q91X20 1-623)
Assay: cell-based or functional assay

V5-tagged ASH2L (absent small homeotic-2-like protein), sequence (Q91X20 whole entry): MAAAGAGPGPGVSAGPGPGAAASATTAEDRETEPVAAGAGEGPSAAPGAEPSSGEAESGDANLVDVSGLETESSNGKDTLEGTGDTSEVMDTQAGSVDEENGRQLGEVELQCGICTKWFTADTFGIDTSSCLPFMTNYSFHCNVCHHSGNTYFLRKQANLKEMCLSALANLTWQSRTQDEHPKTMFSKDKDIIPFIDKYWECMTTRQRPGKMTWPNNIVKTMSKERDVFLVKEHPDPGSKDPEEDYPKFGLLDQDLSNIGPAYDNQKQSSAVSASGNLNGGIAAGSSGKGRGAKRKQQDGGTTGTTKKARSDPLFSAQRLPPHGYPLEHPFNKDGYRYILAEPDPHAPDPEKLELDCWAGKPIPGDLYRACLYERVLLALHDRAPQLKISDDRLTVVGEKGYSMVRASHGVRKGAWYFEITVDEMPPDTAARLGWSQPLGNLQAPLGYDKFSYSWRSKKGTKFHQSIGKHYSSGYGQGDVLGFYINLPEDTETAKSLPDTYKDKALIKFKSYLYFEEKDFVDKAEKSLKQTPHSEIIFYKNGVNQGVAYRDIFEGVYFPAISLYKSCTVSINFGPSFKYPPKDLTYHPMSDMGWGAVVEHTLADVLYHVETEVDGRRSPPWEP

- Isl1 promoter (pLG3-Isl1-WT) luciferase reporter activity in C2C12 cells, ASH2L overexpressed with Smyd1: 25 fold above basal level
B1: Myc-tagged Smyd1 (SET and MYND domain-containing protein 1) (natural protein, mouse, UniProt P97443 1-490, looked up)
chain: MTIGSMENVEVFTSEGKGRGLKATKEFWAADVIFAERAYSAVVFDSLINFVCHTCFKRQEKLHRCGQCKFAHYCDRTCQKDAWLNHKNECAAIKKYGKVPNENIRLAARIMWRVEREGTGLTEGCLVSVDDLQNHVEHFGEEEQKELRVDVDTFLQYWPPQSQQFSMQYISHIFGVINCNGFTLSDQRGLQAVGVGIFPNLGLVNHDCWPNCTVIFNNGNHEAVKSMFHTQMRIELRALGKISEGEELTVSYIDFLHLSEERRRQLKKQYYFDCSCEHCQKGLKDDLFLAAKEDPKPSQEVVKEMIQFSKDTLEKIDKARSEGLYHEVVKLCRECLEKQEPVFADTNLYVLRLLSIASEVLSYLQAYEEASHYARRMVDGYMKLYHHNNAQLGMAVMRAGLTNWHAGHIEVGHGMICKAYAILLVTHGPSHPITKDLEAMRMQTEMELRMFRQNEFMYHKMREAALNNQPMQVMAEPSNEPAPALFHKKQ
